The target in the assay is SARS-CoV-2 full length spike protein, V483A mutant (SARS-CoV-2), P0DTC2. The settings on record: remark: other sources report otherwise.

B1: antibody 262 (antibody, V domains shown)
VH: QVQLVESGGGVVQPGRSLRLSCAASGFTFSSYAMHWVRQAPGKGLEWVAVISYDGSNKYYADSVKGRFTISRDNSKNTLYLQMNSLRAEDTAVYYCARDGGELLWFGELDYYGMDVWGQGTTVTVSS
VL: SYELTQPSSVSVSPGQTARITCSGDVLAKKYARWFQQKPGQAPVLVIYKDSERPSGIPERFSGSSSGTTVTLTISGAQVEDEADYYCYSAADNNRGVFGGGTKLTVL
The molecule B1 had a median fluorescence intensity, fold over isotype control (fold over isotype) of 1.63.

(Values after patent US20210292393A1.)
